Data on 36 sequences can be found in the supplement of paper PMC10899765.

Common to all, as to settings: 20 nM; 72 h
The subject of data set [1] is MCF10A. In words: percent viability (nuclei count relative to siNT); higher = more viable cells. As for the experimental part: (§1)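 After 72 h, cells were fixed and stained with Hoechst and anti-fibrillarin, and nucleoli per nucleus were counted with CellProfiler. Values are plate-adjusted percent effect for the one-nucleolus and 5+ nucleoli phenotypes, normalised to siNT (0%) and to the positive controls siNOL11 or siKIF11 (100%), as the mean of biological triplicates. Percent viability is the nuclei count relative to siNT.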

The test system of data set [2] is MCF10A. Put plainly: 5+ nucleoli phenotype percent effect (relative to siNT 0% and siKIF11 100%); higher = more cells with five or more nucleoli. How it is done: as §1
For data set [3], the system named is MCF10A. Put plainly: one-nucleolus phenotype percent effect (relative to siNT 0% and siNOL11 100%); higher = more cells with one nucleolus (ribosome biogenesis inhibition). How it is done: as §1

Consider “AGGAGGGAAGGGGCUGAGAACAGGA [hsa-miR-6797-5p]”, for which the percent viability in data set [1] was 80.7%. The “5+ nucleoli phenotype percent effect” value in data set [2] worked out at 33.9%. In addition, the “one-nucleolus phenotype percent effect” value in data set [3] was -10.1%.

On to “UAACACUGUCUGGUAACGAUGU [hsa-miR-200a-3p]”, for which the percent viability in data set [1] turned out to be 75.6%. Besides, the “5+ nucleoli phenotype percent effect” value in data set [2] was 36.9%. Further, the “one-nucleolus phenotype percent effect” value in data set [3] was -6.99%.

Consider ACUGGGCAGGGCUGUGGUGAGU [hsa-miR-6860], for which the percent viability in data set [1] was 50.7%. Also, the “5+ nucleoli phenotype percent effect” value in data set [2] was -5.42%. For the same sequence, the “one-nucleolus phenotype percent effect” value in data set [3] was -5.92%.

For the sequence “ACCCGUCCCGUUCGUCCCCGGA [hsa-miR-1247-5p]”, the percent viability in data set [1] was determined as 116%. In data set [2], the “5+ nucleoli phenotype percent effect” value was 2.26%. For the same sequence, the “one-nucleolus phenotype percent effect” value in data set [3] is -16.3%.

As to GUGAGGACUCGGGAGGUGG [hsa-miR-1224-5p], in data set [1], the percent viability turned out to be 53.3%. The “5+ nucleoli phenotype percent effect” value in data set [2] was -12.6%. Further, the “one-nucleolus phenotype percent effect” value in data set [3] was found to be 16.9%.

With GGAUAUCAUCAUAUACUGUAAG [hsa-miR-144-5p], the percent viability in data set [1] turned out to be 54.5%. The “5+ nucleoli phenotype percent effect” value in data set [2] was determined as 2.47%. Besides, the “one-nucleolus phenotype percent effect” value in data set [3] was -0.41%.

As for UGGGAGGAGGGGAUCUUGGG [hsa-miR-7106-5p], in data set [1], the percent viability was 34.9%. Moreover, the “5+ nucleoli phenotype percent effect” value in data set [2] stood at 21.2%. For the same sequence, the “one-nucleolus phenotype percent effect” value in data set [3] is -7.27%.

With “UCAGGACACUUCUGAACUUGGA [hsa-miR-5000-3p]”, the percent viability in data set [1] came out at 53.5%. Further, the “5+ nucleoli phenotype percent effect” value in data set [2] is 20.7%. For the same sequence, in data set [3], the “one-nucleolus phenotype percent effect” value is -10.1%.

Consider CUGGACUUUGAUCUUGCCAUAA [hsa-miR-8058], for which the percent viability in data set [1] is 58.9%. In data set [2], the “5+ nucleoli phenotype percent effect” value is -11.1%. For the same sequence, the “one-nucleolus phenotype percent effect” value in data set [3] was 32.1%.

With UCAAAUGCAGAUCCUGACUUC [hsa-miR-7853-5p], the percent viability in data set [1] is 42.1%. The “5+ nucleoli phenotype percent effect” value in data set [2] was determined as 14%. Also, the “one-nucleolus phenotype percent effect” value in data set [3] was -15.6%.

As to “CUUCCAGACGCUCCGCCCCACGUCG [hsa-miR-3180-5p]”, the percent viability in data set [1] amounted to 67.4%. Besides, the “5+ nucleoli phenotype percent effect” value in data set [2] was 28.4%. Also, in data set [3], the “one-nucleolus phenotype percent effect” value was -9.39%.

As to AGGAAACAGGGACCCA [hsa-miR-4261], the percent viability in data set [1] came to 32.1%. Besides, the “5+ nucleoli phenotype percent effect” value in data set [2] is -16.8%. The “one-nucleolus phenotype percent effect” value in data set [3] came to 37.1%.

For the sequence UGGGCGUAUCUGUAUGCUA [hsa-miR-585], the percent viability in data set [1] turned out to be 39.1%. The “5+ nucleoli phenotype percent effect” value in data set [2] is -5.6%. In addition, the “one-nucleolus phenotype percent effect” value in data set [3] worked out at 41.1%.

Turning to “CACUGUAGGUGAUGGUGAGAGUGGGCA [hsa-miR-1183]”, in data set [1], the percent viability was 66.4%. The “5+ nucleoli phenotype percent effect” value in data set [2] came to 17.5%. For the same sequence, the “one-nucleolus phenotype percent effect” value in data set [3] came out at 0.199%.

Turning to “AACUGGCCUACAAAGUCCCAGU [hsa-miR-193a-3p]”, the percent viability in data set [1] came out at 21.9%. The “5+ nucleoli phenotype percent effect” value in data set [2] was -15.2%. The “one-nucleolus phenotype percent effect” value in data set [3] worked out at 29.5%.

For the sequence “AGGCUCUAACUGGCUUUCCCUGCA [hsa-miR-6822-3p]”, the percent viability in data set [1] was determined as 37.9%. For the same sequence, in data set [2], the “5+ nucleoli phenotype percent effect” value was -24.9%. In addition, the “one-nucleolus phenotype percent effect” value in data set [3] amounted to 32.4%.

In the case of “CCUGGCAUAUUUGGUAUAACUU [hsa-miR-4720-5p]”, in data set [1], the percent viability amounted to 31.3%. In addition, the “5+ nucleoli phenotype percent effect” value in data set [2] was 46.4%. The “one-nucleolus phenotype percent effect” value in data set [3] was 1.6%.

Take AGCUGUCUGAAAAUGUCUU [hsa-miR-626]: the percent viability in data set [1] was 50.2%. Moreover, in data set [2], the “5+ nucleoli phenotype percent effect” value came to 25.1%. For the same sequence, the “one-nucleolus phenotype percent effect” value in data set [3] was 2.9%.

Take UGAGCUAAAUGUGUGCUGGGA [hsa-miR-610]: in data set [1], the percent viability worked out at 131%. Moreover, the “5+ nucleoli phenotype percent effect” value in data set [2] amounted to 20.7%. Moreover, the “one-nucleolus phenotype percent effect” value in data set [3] is -14.8%.

Regarding UAUGUCCCAUCCCUCCAUCA [hsa-miR-6834-3p], the percent viability in data set [1] is 22.7%. Moreover, the “5+ nucleoli phenotype percent effect” value in data set [2] is -28.7%. Moreover, in data set [3], the “one-nucleolus phenotype percent effect” value turned out to be 21.4%.

With AUUGUUCUGUCUUUCUCCCAG [hsa-miR-6739-3p], the percent viability in data set [1] came to 27.3%. In addition, in data set [2], the “5+ nucleoli phenotype percent effect” value was -25.7%. For the same sequence, the “one-nucleolus phenotype percent effect” value in data set [3] was 7.82%.

As for UCACUGUUCAGACAGGCGGA [hsa-miR-1208], the percent viability in data set [1] was 112%. In addition, in data set [2], the “5+ nucleoli phenotype percent effect” value worked out at 20.6%. Besides, in data set [3], the “one-nucleolus phenotype percent effect” value is -21.6%.

As to CACUGGCUCCUUUCUGGGUAGA [hsa-miR-892b], the percent viability in data set [1] was 25.4%. In data set [2], the “5+ nucleoli phenotype percent effect” value was -22.8%. The “one-nucleolus phenotype percent effect” value in data set [3] turned out to be 27.6%.

Regarding “UUCUCAAGGAGGUGUCGUUUAU [hsa-miR-513c-5p]”, in data set [1], the percent viability was determined as 30%. The “5+ nucleoli phenotype percent effect” value in data set [2] was 3.99%. Also, the “one-nucleolus phenotype percent effect” value in data set [3] was 19.8%.

Consider “GCGCUGACCCGCCUUCUCCGCA [hsa-miR-6825-3p]”, for which the percent viability in data set [1] was 108%. Moreover, the “5+ nucleoli phenotype percent effect” value in data set [2] was found to be 45.7%. In addition, the “one-nucleolus phenotype percent effect” value in data set [3] was -15%.

In the case of “UUUGGGAUUGACGCCACAUGUCU [hsa-miR-6513-5p]”, the percent viability in data set [1] amounted to 72.6%. Also, in data set [2], the “5+ nucleoli phenotype percent effect” value is 91.1%. Moreover, the “one-nucleolus phenotype percent effect” value in data set [3] is -20.1%.

On to “AGCGGGGAGGAAGUGGGCGCUGCUU [hsa-miR-4706]”, for which the percent viability in data set [1] came to 32.7%. Besides, the “5+ nucleoli phenotype percent effect” value in data set [2] is -0.458%. Further, the “one-nucleolus phenotype percent effect” value in data set [3] was -0.404%.

Consider UGCCUUCCUGUCUGUG [hsa-miR-4297], for which, in data set [1], the percent viability is 20.9%. Also, the “5+ nucleoli phenotype percent effect” value in data set [2] is -10.3%. For the same sequence, the “one-nucleolus phenotype percent effect” value in data set [3] stood at 16.6%.

Regarding “CGUCUUACCCAGCAGUGUUUGG [hsa-miR-200c-5p]”, in data set [1], the percent viability was found to be 79%. For the same sequence, the “5+ nucleoli phenotype percent effect” value in data set [2] was -1.15%. For the same sequence, in data set [3], the “one-nucleolus phenotype percent effect” value is -5.6%.

For “ACCACUGCACUCCAGCCUGAG [hsa-miR-1273g-3p]”, in data set [1], the percent viability was 39.3%. The “5+ nucleoli phenotype percent effect” value in data set [2] was -16.5%. Further, the “one-nucleolus phenotype percent effect” value in data set [3] was found to be 5.96%.

For the sequence “AUAUACAGGGGGAGACUCUUAU [hsa-miR-1185-1-3p]”, the percent viability in data set [1] worked out at 20.3%. For the same sequence, the “5+ nucleoli phenotype percent effect” value in data set [2] was -12.6%. Moreover, the “one-nucleolus phenotype percent effect” value in data set [3] stood at 9.76%.

As to “AGCAGAGGCAGAGAGGCUCAGG [hsa-miR-2467-3p]”, the percent viability in data set [1] stood at 4.65%. For the same sequence, the “5+ nucleoli phenotype percent effect” value in data set [2] is -24.4%. For the same sequence, in data set [3], the “one-nucleolus phenotype percent effect” value came to 26.3%.

As for GUGUUGAAACAAUCUCUACUG [hsa-miR-653], the percent viability in data set [1] was determined as 169%. Further, in data set [2], the “5+ nucleoli phenotype percent effect” value amounted to 38.1%. Moreover, in data set [3], the “one-nucleolus phenotype percent effect” value was -22.2%.

UAAGGAGGGGGAUGAGGGG [hsa-miR-6891-5p]: in data set [1], the percent viability was 51.8%. Further, the “5+ nucleoli phenotype percent effect” value in data set [2] was -18.8%. Also, the “one-nucleolus phenotype percent effect” value in data set [3] is -7.18%.

In the case of GUGGCUCUGUAGUAAGAUGGA [hsa-miR-8057], the percent viability in data set [1] was found to be 44.7%. In data set [2], the “5+ nucleoli phenotype percent effect” value was 6.17%. Further, the “one-nucleolus phenotype percent effect” value in data set [3] was found to be 6.14%.

GUGGCUGCACUCACUUCCUUC [hsa-miR-647]: the percent viability in data set [1] amounted to 46%. In data set [2], the “5+ nucleoli phenotype percent effect” value was -9.97%. Moreover, the “one-nucleolus phenotype percent effect” value in data set [3] was determined as 33.1%.
